These results are taken from article PMC7335187, “Super-assembly of ER-phagy receptor Atg40 induces local ER remodeling at contacts with forming autophagosomal membranes” (Nature Communications, 2020).

The target in one data set is T1, Atg8 (1-116) K26P (S. cerevisiae, UniProt P38182 1-116, K26P).
T1 sequence (looked up): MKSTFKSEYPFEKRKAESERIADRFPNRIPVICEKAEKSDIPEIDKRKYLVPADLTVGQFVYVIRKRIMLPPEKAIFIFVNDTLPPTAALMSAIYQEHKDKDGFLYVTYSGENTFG
The data set can be described thus: ITC; MicroCal iTC200, 25 °C; peptide in the syringe (FAM134B, SEC62, RTN3 0.5 mM; Atg40^234–252 2.0 mM; Atg40^237–252 1.8 mM), Atg8-family protein in the cell at 10 times lower concentration (1.8 mM Atg8 for Atg40^237–252 D243A D247A); 20 mM HEPES pH 6.8, 150 mM NaCl; single-site model; errors are fitting errors. The note with it: both partners purified. In general terms: ITC needs no label: the signal is the heat of the interaction.

Data set [1] concerns the target T2, LC3B WT (rat LC3B 1-120) (rat, UniProt Q62625 1-120). Put plainly: ITC; peptide in the syringe (0.5 mM) titrated into 200 µl of the Atg8 homologue in the cell at a 10 times lower concentration; MicroCal iTC200, 25 °C, stirring at 1000 rpm; single-site binding model; N fixed to 1.0 when the fitting was not convergent due to weak interaction; errors are fitting errors. As to conditions: both partners purified.

In data set [2] the target is T3, GABARAP WT (human GABARAP 1-116) (human, UniProt O95166 1-116). Described as above. As to conditions: both partners purified.
Data set [3] addresses T4, LC3A WT (UniProt Q9H492 1-121). Described as above. As to conditions: both partners purified.
A further data set addresses LC3C WT (UniProt Q9BXW4 1-126). The data set is described as above. As to conditions: both partners purified.
Data set [4] has as its target T5, GABARAPL2 WT (UniProt P60520 1-117). Described as above. As to conditions: both partners purified.
The target in data set [5] is T6, GABARAPL1 WT (UniProt Q9H0R8 1-117). The data set is described as above. The note with it: both partners purified.
Data set [6] has as its target T4, LC3A WT. The data set is described as above. As to conditions: both partners purified. This is another data set of the same source.
The target in data set [7] is T2, LC3B WT (rat LC3B 1-120). The description is as above. As to conditions: both partners purified. The source holds these as a separate data set.
Data set [8] concerns the target T3, GABARAP WT (human GABARAP 1-116). Described as above. The note with it: both partners purified. The source holds these as a separate data set.
Data set [9] deals with T7, Atg8 K26P (in the crystallised Atg40^237–252-Atg8 fusion) (S. cerevisiae, UniProt P38182 1-116, K26P).
T7 construct: Atg8, S. cerevisiae (ScAtg8), residues 1-116; K26P introduced for stabilizing Atg8; the GST of the fusion stood before m15 and was cleaved; source: E. coli BL21 (DE3), purified (GST-accept resin, HRV 3C protease, SEC), on one chain with m15
T7 sequence (looked up): T1 sequence (looked up)
Put plainly: crystal structure; the AIM sequence fused to the N terminus of Atg8 K26P or GABARAP F3S V4T on one chain; sitting-drop vapor diffusion at 20 °C; molecular replacement. The note with it: both partners purified.

Data set [10] concerns the molecule itself. The data set can be described thus: co-IP; two-step: anti-FLAG beads, elution with 3 x FLAG peptide, then GFP nanobody-conjugated beads, blot for Atg40-HA; wild-type cells; larger oligomers significantly decreased in atg1Δ, atg2Δ and atg8Δ cells.
Data set [11] concerns the molecule itself. The data set can be described thus: SEC-MALS; Atg40-6His solubilized in DDM; Superdex 200 increase 10/300 in 20 mM Tris-HCl pH 8.0, 150 mM NaCl, 0.03% DDM, room temperature. On the technique in general: SEC sorts molecules by how far they enter the pores of the column.
The target of data set [12] is T5, GABARAPL2 WT. The data set can be described thus: ITC; peptide in the syringe (0.5 mM) titrated into 200 µl of the Atg8 homologue in the cell at a 10 times lower concentration; MicroCal iTC200, 25 °C, stirring at 1000 rpm; single-site binding model; N fixed to 1.0 when the fitting was not convergent due to weak interaction; errors are fitting errors. As to conditions: both partners purified. The source holds these as a separate data set.

For data set [13], the target named is T6, GABARAPL1 WT. The data set is described as above. As to conditions: both partners purified. This is another data set of the same source.

Bounds are passed on as bounds.

T3 sequence (O95166 1-116): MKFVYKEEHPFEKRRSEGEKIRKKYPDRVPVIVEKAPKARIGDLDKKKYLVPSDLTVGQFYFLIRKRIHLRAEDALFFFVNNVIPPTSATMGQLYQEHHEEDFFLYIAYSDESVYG
T5 sequence (P60520 whole entry): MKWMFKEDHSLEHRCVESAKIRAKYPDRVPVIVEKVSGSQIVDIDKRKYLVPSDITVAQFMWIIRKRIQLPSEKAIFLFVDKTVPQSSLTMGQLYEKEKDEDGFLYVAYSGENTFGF
LC3C WT, sequence (Q9BXW4 1-126): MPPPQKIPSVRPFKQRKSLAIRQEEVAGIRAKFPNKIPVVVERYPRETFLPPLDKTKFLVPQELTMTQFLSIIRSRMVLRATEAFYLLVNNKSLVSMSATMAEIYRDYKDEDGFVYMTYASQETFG
T6 sequence (Q9H0R8 whole entry): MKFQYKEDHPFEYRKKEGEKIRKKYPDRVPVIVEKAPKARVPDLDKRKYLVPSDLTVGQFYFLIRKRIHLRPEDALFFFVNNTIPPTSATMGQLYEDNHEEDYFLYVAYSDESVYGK

B1: Atg40^234–252 peptide (peptide, UniProt Q99325 234-252, looked up)
peptide: TSTEFPNDYDFMEDILDET
notes: Atg40, S. cerevisiae, residues 234-252; also called wild-type peptide; source: synthetic peptide (Liberty Blue peptide synthesizer), SEC
Take B1: in the data set with Atg8 (1-116) K26P, the Kd was found to be 0.59 µM.

B2: RTN3245-253 (Δhelix) peptide (peptide)
peptide: YESPFEVIID
notes: numbers count on: isoform e; also called RTN3245-253 WT (Δhelix); source: synthetic peptide
Take B2: the Kd stood at 31.1 µM in the data set with LC3B WT (rat LC3B 1-120) [1], 14 µM in data set [2] and 21.7 µM with LC3A WT [3]. Also, the figures for the “stoichiometry N” value (with LC3B WT (rat LC3B 1-120) [1]; in data set [2]; with LC3A WT [3]) were 0.91 site, 0.82 site and 0.54 site, respectively.

B3: SEC62355-376 WT peptide (peptide)
peptide: GPHSSGNGNDFEMITKEELEQQTDY
Take B3: the Kd with LC3C WT worked out at 5.18 µM; with GABARAPL2 WT [4], 0.58 µM; with GABARAPL1 WT [5], 0.39 µM; with LC3A WT [6], 0.92 µM; with LC3B WT (rat LC3B 1-120) [7], 3.37 µM. Moreover, the “stoichiometry N” value with LC3C WT came out at 0.46 site; with GABARAPL2 WT [4], 0.78 site; with GABARAPL1 WT [5] it was 0.83 site; in the data set with LC3A WT [6], 0.78 site; with LC3B WT (rat LC3B 1-120) [7], 0.74 site.

B4: SEC62355-376 I366A peptide (peptide)
peptide: GPHSSGNGNDFEMATKEELEQQTDY
For B4, in [8], binding was put at a Kd of 14.5 µM and the “stoichiometry N” value worked out at 0.87 site.

B5: Atg40^237–252 (in the crystallised Atg40^237–252-Atg8 fusion) (domain or fragment, S. cerevisiae, UniProt Q99325 237-252, looked up)
chain: EFPNDYDFMEDILDET
Regarding B5, the binding result in [9] was “binds”.

B6: Atg40-HA (natural protein, S. cerevisiae, UniProt Q99325 1-256, looked up)
chain: MFNLILWPLFLLTSVAIPLQLTLEVVYLTSSVDFSKASAAKTATSLGQSPVVITIYKSLLKYWSLYEFIHFIYLYTPIDAFLNFLPFTSLLMSFGSICLTRELVYDFIAFMESQNKLTGFLNKITEPNFNSYLLFSSIYNIWFADDTNDKFLFGKLTQILISVTKRYEFPRTFYLAKVSDFLQNLILTRLRPFVTEQPQGDKNRYQNGDRESTKNGAAYQKSSQQSSSFEQNFTSTEFPNDYDFMEDILDETTELD
notes: Atg40, ER-phagy receptor of S. cerevisiae; also called Atg40-FLAG; Atg40-GFP; source: S. cerevisiae cells treated with rapamycin, in lysate
As to B6, in [10], the “stoichiometry N” value is greater than 2.

B7: Atg40-6His (natural protein, S. cerevisiae, UniProt Q99325 1-256, looked up)
chain: B6 chain
notes: Atg40, S. cerevisiae; Atg40-6His is printed as 30.6 kDa; also called purified Atg40; source: S. cerevisiae BJ3505 (GPD promoter), purified from membranes in DDM (Ni-NTA, SEC)
Regarding B7, in data set [11], the “stoichiometry N” value amounted to 2.

B8: RTN3245-264 peptide (peptide)
peptide: ESPFEVIIDKAAFDKEFKDSY
notes: numbers count on: isoform e; Tyr attached to the C terminus for quantification by absorbance at 280 nm; source: synthetic peptide
With B8, the Kd in the data set with LC3B WT (rat LC3B 1-120) [1] stood at 28.8 µM; in data set [2] it was 5.03 µM; in the data set with GABARAPL2 WT [12] it was 17.4 µM; with GABARAPL1 WT [13] it was 5 µM; in the data set with LC3A WT [3] it was 17.2 µM. Also, the “stoichiometry N” value in [2] came to 0.74 site; with GABARAPL2 WT [12], 0.51 site; with GABARAPL1 WT [13], 0.81 site; with LC3A WT [3] it was 0.55 site.

B9: SEC62361-368 (Δhelix) peptide (peptide)
peptide: NDFEMITKY
notes: SEC62, human, residues 361-368 (lacks the helix C-terminal to the AIM/LIR); Tyr attached to the C terminus for quantification by absorbance at 280 nm; also called Sec62361-368 WT (Δhelix); source: synthetic peptide (BEX Co., Ltd.), SEC
Consider B9, for which the Kd came out at 31.9 µM with LC3C WT, 90.9 µM with GABARAPL2 WT [4], 13.3 µM with GABARAPL1 WT [5] and 54.6 µM in the data set with LC3A WT [6]. Also, the results for the “stoichiometry N” value with GABARAPL1 WT [5] and with LC3A WT [6] were 0.99 site and 0.98 site, respectively.

As usually defined, the Kd is the equilibrium constant for the complex coming apart. By stoichiometry N is commonly meant the number of molecules, sites or subunits per partner or assembly.
